This assay addresses HIV-1 strain IIIB envelope protein gp120/41 on the surface of HIV-1-infected Jurkat cells (HIV-1 strain IIIB) (UniProt P04578). Kind of assay: cell-based or functional assay.

Among the data in EP1012244B1 are percentage of HIV-1+ cells that were also infected with VSVΔG-CC4 values, retold here.

The substance “CXCR4 protein with an HA epitope tag (from UniProt P61073 1-352) (receptor)” returned a percentage of HIV-1+ cells that were also infected with VSVΔG-CC4 of 90 to 95%.
